Reference: the Human Domainome abundance scans (Beltran et al. 2025)
± gives the uncertainty stated by the source.

B1: Membrane-associated guanylate kinase, WW and PDZ domain-containing protein 2, residues 601 to 682; numbered along this chain, Q86UL8 (parent)
chain: AELMTLTIVKGAQGFGFTIADSPTGQRVKQILDIQGCPGLCEGDLIVEINQQNVQNLSHTEVVDILKDCPIGSETSLIIHRG
B2: Pituitary-specific positive transcription factor 1, residues 130 to 198; numbered along this chain, P28069 (parent)
chain: RELEKFANEFKVRRIKLGYTQTNVGEALAAVHGSEFSQTTICRFENLQLSFKNACKLKAILSKWLEEAE

Variants of: B1
Assay: abundance fitness (aPCA) (normalised: wild type 0, dead -1); higher = more abundant; growth selection in yeast, the domain comes from the species named
Details: Homo sapiens

Variant | abundance fitness
T75C | -0.331 ± 0.2
T75A | 0.101 ± 0.079
T75P | -0.164 ± 0.078
T75L | -0.045 ± 0.072
T75N | -0.115 ± 0.19
T75G | -0.08 ± 0.063
T75R | -0.113 ± 0.075
T75E | -0.072 ± 0.11
T75Y | -0.151 ± 0.12
T75M | 0.047 ± 0.11
T75S | -0.331 ± 0.082
T75F | -0.02 ± 0.16
S76T | -0.053 ± 0.087
S76V | -0.031 ± 0.063
S76C | 0.016 ± 0.12
S76Q | 0 ± 0.1
S76E | -0.044 ± 0.14
S76M | -0.003 ± 0.11
S76D | -0.124 ± 0.098
S76R | -0.021 ± 0.054
S76L | -0.061 ± 0.077

Variant | abundance fitness
S76Y | 0.09 ± 0.21
S76P | -0.046 ± 0.072
S76N | -0.003 ± 0.2
S76H | -0.668 ± 0.29
S76A | -0.018 ± 0.074
S76W | -0.123 ± 0.076
S76I | -0.118 ± 0.14
L77S | -0.583 ± 0.15
L77M | 0.008 ± 0.12
L77W | -0.072 ± 0.075
L77T | -0.132 ± 0.12
L77D | -1.28 ± 0.48
L77A | -0.124 ± 0.07
L77P | -0.86 ± 0.24
L77K | -0.892 ± 0.31
L77F | -0.05 ± 0.38
L77E | -1.12 ± 0.38
L77R | -1.17 ± 0.28
L77I | 0.24 ± 0.29
L77G | -1.02 ± 0.15
L77V | -0.03 ± 0.062

Variants of: B2
Assay: as above
Details: Homo sapiens

Variant | abundance fitness
REMEKFANEFKVRRIKLGYTQTNVGEALAAVHGSEFSQTTICRFENLQLSFKNACKLKAILSKWLEEAE [L3M] | -0.469 ± 0.13
REWEKFANEFKVRRIKLGYTQTNVGEALAAVHGSEFSQTTICRFENLQLSFKNACKLKAILSKWLEEAE [L3W] | -0.715 ± 0.16
REREKFANEFKVRRIKLGYTQTNVGEALAAVHGSEFSQTTICRFENLQLSFKNACKLKAILSKWLEEAE [L3R] | -0.751 ± 0.24
